Experimental data as given in PMC6026032 (Brain research, 2018).

Biological target: the molecule itself
Assay: native gel or EMSA

Row | Protein | stoichiometry N
1 | HA-tagged Cbln1 (wild type) (ligand, mouse, UniProt Q9R171 22-193, looked up, N-linked glycans at N23 and N79; sialylated) QNETEPIVLEGKCLVVCDSNPTSDPTGTALGISVRSGSAKVAFSAIRSTNHEPSEMSNRTMIIYFDQVLVNIGNNFDSERSTFIAPRKGIYSFNFHVVKVYNRQTIQVSLMLNGWPVISAFAGDQDVTREAASNGVLIQMEKGDRAYLKLERGNLMGGWKYSTFSGFLVFPL | 6
2 | HA-tagged Cbln1 N79Q (ligand, mouse, UniProt Q9R171 22-193, looked up, N-linked glycan at N23 only (monoglycosylated)) QNETEPIVLEGKCLVVCDSNPTSDPTGTALGISVRSGSAKVAFSAIRSTNHEPSEMSQRTMIIYFDQVLVNIGNNFDSERSTFIAPRKGIYSFNFHVVKVYNRQTIQVSLMLNGWPVISAFAGDQDVTREAASNGVLIQMEKGDRAYLKLERGNLMGGWKYSTFSGFLVFPL | 6
3 | HA-tagged Cbln1 N23Q (ligand, mouse, UniProt Q9R171 22-193, looked up, N-linked glycan at N79 only (monoglycosylated)) QQETEPIVLEGKCLVVCDSNPTSDPTGTALGISVRSGSAKVAFSAIRSTNHEPSEMSNRTMIIYFDQVLVNIGNNFDSERSTFIAPRKGIYSFNFHVVKVYNRQTIQVSLMLNGWPVISAFAGDQDVTREAASNGVLIQMEKGDRAYLKLERGNLMGGWKYSTFSGFLVFPL | 6
4 | HA-tagged Cbln2 (wild type) (ligand, mouse, UniProt Q8BGU2 52-224, looked up, N-linked glycans at N53 and N110) QNDTEPIVLEGKCLVVCDSSPSGDGAVTSSLGISVRSGSAKVAFSATRSTNHEPSEMSNRTMTIYFDQVLVNIGNHFDLASSIFVAPRKGIYSFSFHVVKVYNRQTIQVSLMQNGYPVISAFAGDQDVTREAASNGVLLLMEREDKVHLKLERGNLMGGWKYSTFSGFLVFPL | 6
5 | HA-tagged Cbln2 N53Q (ligand, mouse, UniProt Q8BGU2 52-224, looked up, N-linked glycan at N110 only (monoglycosylated)) QQDTEPIVLEGKCLVVCDSSPSGDGAVTSSLGISVRSGSAKVAFSATRSTNHEPSEMSNRTMTIYFDQVLVNIGNHFDLASSIFVAPRKGIYSFSFHVVKVYNRQTIQVSLMQNGYPVISAFAGDQDVTREAASNGVLLLMEREDKVHLKLERGNLMGGWKYSTFSGFLVFPL | 6
6 | HA-tagged Cbln2 N110Q (ligand, mouse, UniProt Q8BGU2 52-224, looked up, N-linked glycan at N53 only (monoglycosylated)) QNDTEPIVLEGKCLVVCDSSPSGDGAVTSSLGISVRSGSAKVAFSATRSTNHEPSEMSQRTMTIYFDQVLVNIGNHFDLASSIFVAPRKGIYSFSFHVVKVYNRQTIQVSLMQNGYPVISAFAGDQDVTREAASNGVLLLMEREDKVHLKLERGNLMGGWKYSTFSGFLVFPL | 6
7 | HA-tagged Cbln4 (wild type) (ligand, mouse, UniProt Q8BME9 25-198, looked up, N-linked glycans at N26 and N85; sialylated) QNDTEPIVLEGKCLVVCDSNPATDSKGSSSSPLGISVRAANSKVAFSAVRSTNHEPSEMSNKTRIIYFDQILVNVGNFFTLESVFVAPRKGIYSFSFHVIKVYQSQTIQVNLMLNGKPVISAFAGDKDVTREAATNGVLLYLDKEDKVYLKLEKGNLLGGWQYSTFSGFLVFPL | 6
8 | HA-tagged Cbln4 N85Q (ligand, mouse, UniProt Q8BME9 25-198, looked up, N-linked glycan at N26 only (monoglycosylated)) QNDTEPIVLEGKCLVVCDSNPATDSKGSSSSPLGISVRAANSKVAFSAVRSTNHEPSEMSQKTRIIYFDQILVNVGNFFTLESVFVAPRKGIYSFSFHVIKVYQSQTIQVNLMLNGKPVISAFAGDKDVTREAATNGVLLYLDKEDKVYLKLEKGNLLGGWQYSTFSGFLVFPL | 6
